The binders below were run against 重组人HER2蛋白的胞外区 (rHER2-ECD) (human) (UniProt P04626) (assay: SPR (BIACORE3000), rHER2-ECD coupled to CM5 chip, antibody in flow, 25 °C).

Kd [nM] | Binder
0.295 | m14C5B (antibody, mouse IgG1, V domains shown) VH: EVQLQQSGPELEKPGASVKISCRTSGYSFTMYNINWVKQTNGKSLEWIGNLDAYYGGSNYNPKFKDKATLTVDISSNTAFMQLWSLTSEDSAVYYCTRILWSRDFYTMDYWGRGTSVTVSS VL: DIQVTQTSSSLSASLGDRVTITCRTSQDISNYLHWYQQTPDGTVKLLIYSTSTGHSGVPSRFSGSGSGTDYSLTISNLEQEDIATYFCQQSYTLAYTFGGGTKLEIKR
0.242 | hu14C5B (antibody, V domains shown, not shown: a dimerising Fc or GST) VH: EVQLVESGGGLVQPGGSLRLSCAASGYSFTMYNINWVKQAPGKGLEWIGNLDAYYGGSNYNPKFKDKATLSRDNSKNTAYLQMNSLRAEDTAVYYCTRILWSRDFYTMDYWGQGTLVTVSS VL: DIQVTQSPSSLSASVGDRVTITCRTSQDISNYLHWYQQKPGKAPKLLIYSTSTGHSGVPSRFSGSGSGTDFTLTISSLQPEDFATYFCQQSYTLAYTFGQGTKVEIKR
4.62 | hu14C5B-6 (antibody, V domains shown, not shown: a dimerising Fc or GST) VH: EVQLVESGGGLVQPGGSLRLSCAASGFTFSLYNINWVKQAPGKGLEWIGNLDPYYGGSNYNPKFKDKATLSRDNSKNTAYLQMNSLRAEDTAVYYCTRILWSRDYYTMDYWGQGTLVTVSS VL: DIQVTQSPSSLSASVGDRVTITCRTSQDISNYLHWYQQKPGKAPKLLIYSTSTLHSGVPSRFSGSGSGTDFTLTISSLQPEDFATYFCQQSYTLPYTFGQGTKVEIKR
0.186 | hu14C5B-5 (antibody, human IgG1, kappa, V domains shown) VH: EVQLVESGGGLVQPGGSLRLSCAASGFTFSAYNINWVKQAPGKGLEWIGNLDPYYGGSNYNPKFKDKATLSRDNSKNTAYLQMNSLRAEDTAVYYCTRILWSRDYYTMDYWGQGTLVTVSS VL: DIQVTQSPSSLSASVGDRVTITCRTSQDISNYLHWYQQKPGKAPKLLIYSTSTLHSGVPSRFSGSGSGTDFTLTISSLQPEDFATYFCQQSYTLPYTFGQGTKVEIKR
31.5 | hu14C5B-2 (antibody, V domains shown, not shown: a dimerising Fc or GST) VH: EVQLVESGGGLVQPGGSLRLSCAASGFTFSLYNINWVKQAPGKGLEWIGNLDPYYGGSNYNPKFKDKATLSRDNSKNTAYLQMNSLRAEDTAVYYCTRILWSRDYYTMDYWGQGTLVTVSS VL: DIQVTQSPSSLSASVGDRVTITCRTSQDISNYLHWYQQKPGKAPKLLIYSTSTAHSGVPSRFSGSGSGTDFTLTISSLQPEDFATYFCQQSYTLLYTFGQGTKVEIKR
8.53 | hu14C5B-1 (antibody, V domains shown, not shown: a dimerising Fc or GST) VH: EVQLVESGGGLVQPGGSLRLSCAASGFTFSAYNINWVKQAPGKGLEWIGNLDPYYGGSNYNPKFKDKATLSRDNSKNTAYLQMNSLRAEDTAVYYCTRILWSRDYYTMDYWGQGTLVTVSS VL: DIQVTQSPSSLSASVGDRVTITCRTSQDISNYLHWYQQKPGKAPKLLIYSTSTAHSGVPSRFSGSGSGTDFTLTISSLQPEDFATYFCQQSYTLLYTFGQGTKVEIKR

— patent publication CN108610419A
